According to the Immune Epitope Database (IEDB):

Legend:
HLA-A*02:01 [1] = test: IEDB peptide-MHC binding, purified MHC/competitive/radioactivity; ≥ and ≤ were set here for values at or beyond the usual limits of such assays; conditions: source organism: Homo sapiens
HLA-A*02:01 [2] = test: IEDB peptide-MHC binding, purified MHC/competitive/radioactivity; filed as Kd, often an IC50 or EC50 that approximates it; ≥ and ≤ were set here for values at or beyond the usual limits of such assays; conditions: source organism: Homo sapiens

| Sequence | IC50 (HLA-A*02:01 [1]) | Kd (HLA-A*02:01 [2]) |
| --- | --- | --- |
| ALIICNAII | 893 nM | – |
| AVMDPFIYA | 758 nM | – |
| DLLVSGSNV | – | ≥ 50000 nM |
| ELRRTLKEV | – | ≥ 50000 nM |
| GLAANQTGA | – | 2380 nM |
| GLFLSLGLV | 535 nM | – |
| GLKGAVTLT | – | ≥ 50000 nM |
| ILLGIFFLC | – | 5560 nM |
| ILLLEAGAL | – | 4760 nM |
| LLVSGSNVL | – | 1410 nM |
| LVLMAVLYV | – | 1210 nM |
| SLCFLGAIA | – | ≥ 10000 nM |
| SLNSTPTAI | 633 nM | – |
| SLVENALVV | 429 nM | – |
| SVIDPLIYA | – | 1190 nM |
| TILLGVFIF | – | 4540 nM |
| YLVLINCNS | – | 2170 nM |

Second part, the sequence after the results:

| IC50 (HLA-A*02:01 [1]) | Kd (HLA-A*02:01 [2]) | Sequence |
| --- | --- | --- |
| – | 11100 nM | ALVARAAVL |
| – | 2080 nM | FLAMLVLMA |
| 206 nM | – | FLSLGLVSL |
| 532 nM | – | GLVSLVENA |
| 676 nM | – | LLCLVVFFL |
| – | 1640 nM | MLARACQHA |
| – | 16700 nM | NGMLIMCNA |
| – | ≥ 50000 nM | QLGLAANQT |
| – | 4540 nM | TILIGVFVV |
| 455 nM | – | TILLGIFFL |
| – | ≥ 25000 nM | TLPRARRRV |
| 238 nM | – | VLETAVGLL |
| – | 6250 nM | YLILIMCNS |
